The values below come from patent publication US20260183373.

One series concerns the target Aβ(1-40) (UniProt P05067).
Another series concerns the target Aβ(1-42) (UniProt P05067).

Chain of MMP2 (P08253 110-660): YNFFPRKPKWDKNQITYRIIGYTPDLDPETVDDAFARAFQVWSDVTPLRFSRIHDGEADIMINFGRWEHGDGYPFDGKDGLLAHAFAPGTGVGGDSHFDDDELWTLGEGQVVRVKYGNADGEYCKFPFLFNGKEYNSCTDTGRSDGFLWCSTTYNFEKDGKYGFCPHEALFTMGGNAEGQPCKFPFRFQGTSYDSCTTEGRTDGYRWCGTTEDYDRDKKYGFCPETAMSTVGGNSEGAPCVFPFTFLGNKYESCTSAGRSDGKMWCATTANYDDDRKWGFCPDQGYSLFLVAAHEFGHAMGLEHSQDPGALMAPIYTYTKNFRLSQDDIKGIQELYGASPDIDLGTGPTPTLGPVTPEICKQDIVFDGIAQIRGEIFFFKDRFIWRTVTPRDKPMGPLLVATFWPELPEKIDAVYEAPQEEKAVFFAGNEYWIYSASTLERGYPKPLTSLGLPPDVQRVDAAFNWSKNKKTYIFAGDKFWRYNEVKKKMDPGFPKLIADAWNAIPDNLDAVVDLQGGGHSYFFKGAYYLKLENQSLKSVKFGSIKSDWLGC

Regarding ECE1, the “stated: cleaves; Aβ cleavage assay, intact Aβ by ELISA (% untreated)” value (“stated: cleaves … (% untreated)” below) is “near 100 % up to about 10 nM, falls to about 30 % at the highest concentration (about 1000 nM), no lower plateau” in the series with Aβ(1-40) and “near 100 % up to about 10 nM, falls only to about 60 % at the highest concentration (about 1000 nM), no lower plateau” with Aβ(1-42).
In the case of MMP2, the “stated: cleaves … (% untreated)” value with Aβ(1-40) was “about 105 % up to about 30 nM, about 45 % near 100 nM, about 0 % from about 300 nM”; with Aβ(1-42), “drifts from about 90 % to about 65 % between 0.01 and 30 nM (no flat upper plateau), about 40 % near 100 nM, about 0 % from about 300 nM”.
In the case of MMP9, the “stated: cleaves … (% untreated)” value in the series with Aβ(1-40) was “about 100 % up to about 30 nM, about 80 % near 100 nM, about 40 % near 300 nM, about 10 % at the highest concentration (about 1000 nM), no lower plateau”; in the series with Aβ(1-42), “about 80 % up to about 30 nM, about 60 % near 100 nM, about 35 % near 300 nM, below 10 % at the highest concentration (about 1000 nM), no lower plateau”.
On to MTSP1, for which the “stated: cleaves … (% untreated)” value is listed as “about 100 % up to about 30 nM, about 70 % near 100 nM, about 35 % near 300 nM, about 13 % at the highest concentration (about 1000 nM), no lower plateau” in the series with Aβ(1-40) and “about 100 % up to about 10 nM, about 70 % near 100 nM, about 47 % near 300 nM, about 20 % at the highest concentration (about 1000 nM), no lower plateau” in the series with Aβ(1-42).
NEP2: the “stated: cleaves … (% untreated)” value is “stays near 100 % up to about 10 nM, about 60 % near 30 nM, about 25 % near 100 nM, about 0 % from about 300 nM” with Aβ(1-40) and “stays near 90 % up to about 10 nM, about 60 % near 30 nM, about 35 % near 100 nM, about 0 % at the highest concentration (about 1000 nM)” with Aβ(1-42).
